# Data reported in patent CN106589116A (INST MICROBIOLOGY CAS, dated 2017).
# Target: ZIKV-E蛋白 (寨卡病毒E蛋白胞外区, C端6*His, 大肠杆菌表达复性) (Zika virus, UniProt A0A024B7W1 291-699)
# Assay: SPR, Biacore T100, antibody captured by anti-human IgG on CM5, ZIKV-E as analyte
# Sequence of ZIKV-E蛋白 (寨卡病毒E蛋白胞外区, C端6*His, 大肠杆菌表达复性) (A0A024B7W1 291-699, tags left off): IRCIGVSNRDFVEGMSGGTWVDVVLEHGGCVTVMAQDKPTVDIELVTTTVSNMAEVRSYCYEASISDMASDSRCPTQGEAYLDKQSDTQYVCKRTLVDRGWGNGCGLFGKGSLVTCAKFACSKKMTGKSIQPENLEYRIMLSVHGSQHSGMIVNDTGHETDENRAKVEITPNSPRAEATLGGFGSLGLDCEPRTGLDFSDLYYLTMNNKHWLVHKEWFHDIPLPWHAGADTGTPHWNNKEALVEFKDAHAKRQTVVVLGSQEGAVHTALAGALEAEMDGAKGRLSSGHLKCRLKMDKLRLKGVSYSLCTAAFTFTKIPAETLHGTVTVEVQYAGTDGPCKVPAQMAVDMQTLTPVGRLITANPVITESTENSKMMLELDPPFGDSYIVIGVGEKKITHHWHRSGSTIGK
row,Binder,Kd [nM]
1,"Z7 (antibody, V domains shown, also called 克隆Z7; 人源单克隆抗体Z7) V domain 1: QVQLQESGPGLVKPSETLSLTCTVFGGSVNNPTNYWGWIRQSPGKGLEWIGSVYYTGINYYNPSLESRVTIAVVTSKNQFSLKLTSVTATDTAVYYCARHPRPETGYDFDYWGQGTLVTVSS V domain 2: QSVLTQPPSVSAAPGQKVTISCSGSSSNIGNNYVSWYQQLPGTAPKLLLYDNNKRPSGTPDRFSGSKSGTSATLGIAGLQTGDEAVYHCATWDSSLSAEVFGGGTQVTVLG",0.2
2,"Z5 (antibody, V domains shown, also called 克隆Z5; 人源单克隆抗体Z5) VH: QVQLQESGHRLVKPSETLSLTCTVSGGSISSDPYLWGWIRQPPGKGLEWIGSIYHSGSAYYNPSLKSRVTLSVDTSRNQFSLKVNSVTATDTAVYYCVEVAPPEKWGRGILVTVSS VL: QSALTQPPSASGSPGQSVTISCTGTSSDVGGYNYVSWYQQHPGKAPKLMIYAVNKRPSGVPDRFSGSKSGNTASLTVSRLQDDDEADYYCSSYGGSNNILFGGGTKLTVLG",0.0399
3,"Z6 (antibody, V domains shown, also called 克隆Z6; 人源单克隆抗体Z6) VH: QVQLQESGPGLVKPSETLSLICTVSGGSISTRDYYWGWIRQTPGKGLEWIGSIYYSGGTYYSPSLKSRVTISVDTSKNQFSLKLRSVTAADTAVYYCARQWGNYFDHWGQGSLVTVSS VL: DIVLTQSPSFLSASVGDRVTITCRASQGIDTYLAWYQQKPGKAPKLLIYGASTLQSGVPSRFSGSGSGTEFTLTISSLQPEDFATYYCQQLNNYHFTFGPGTKVDIKR",0.0447
